Results from patent US20130247232A1 (PRECISION BIOLOGICS, published 2013).
Substitutions are numbered along the chain they refer to. Ends that are not written are not given here.

B1: M13 phage clone 4-1-2-C5 (other)
chain: WHTLPEKSLDENGGGSAETVESCLAKPHTENSFTNVWKDDKTLDRYANYEGCLWNATGVVVCTGDETQCYGTWVPIGLAIPENEGGGSEGGGSEGGGSEGGGTKPPEYGDTPIPGYTYINPLDGTYPPGTEQNPANPNPSLEESQPLNTFMFQNNRFRNRQGALTVYTGTVTQGTDPVKTYYQYTPVSSKAMYDAYWNGKFRDCAFHSGFNEDPFVCEYQGQSSDLPQPPVNAGGGSGGGSGGGSEGGGSEGGGSEGGGSEGGGSGGGSGSGDFDYEKMANANKGAMTENADENALQSDAKGKLDSVATDYGAAIDGFIGDVSGLANGNGATGDFAGSNSQMAQVGDGDNSPLMNNFRQYLPSLPQSVECRPFVFSAGKPYEFSIDCDKINLFRGVFAFLLYVATFMYVFSTFANILRNKES
notes: Whole phage particle displaying the peptide on pIII
B2: M13 phage clone 4-1-3-C9 (other)
chain: FPEDYFRYTNQKGGGSAETVESCLAKPHTENSFTNVWKDDKTLDRYANYEGCLWNATGVVVCTGDETQCYGTWVPIGLAIPENEGGGSEGGGSEGGGSEGGGTKPPEYGDTPIPGYTYINPLDGTYPPGTEQNPANPNPSLEESQPLNTFMFQNNRFRNRQGALTVYTGTVTQGTDPVKTYYQYTPVSSKAMYDAYWNGKFRDCAFHSGFNEDPFVCEYQGQSSDLPQPPVNAGGGSGGGSGGGSEGGGSEGGGSEGGGSEGGGSGGGSGSGDFDYEKMANANKGAMTENADENALQSDAKGKLDSVATDYGAAIDGFIGDVSGLANGNGATGDFAGSNSQMAQVGDGDNSPLMNNFRQYLPSLPQSVECRPFVFSAGKPYEFSIDCDKINLFRGVFAFLLYVATFMYVFSTFANILRNKES
notes: as for B1
B3: M13 phage clone 4-1-3-C8 (other)
chain: B1 chain with K7S, S8G, L9E, D10V, E11T, N12S
notes: as for B1
B4: M13 phage clone 4-1-3-C11 (other)
chain: VHAIEDNWSPRGGGGSAETVESCLAKPHTENSFTNVWKDDKTLDRYANYEGCLWNATGVVVCTGDETQCYGTWVPIGLAIPENEGGGSEGGGSEGGGSEGGGTKPPEYGDTPIPGYTYINPLDGTYPPGTEQNPANPNPSLEESQPLNTFMFQNNRFRNRQGALTVYTGTVTQGTDPVKTYYQYTPVSSKAMYDAYWNGKFRDCAFHSGFNEDPFVCEYQGQSSDLPQPPVNAGGGSGGGSGGGSEGGGSEGGGSEGGGSEGGGSGGGSGSGDFDYEKMANANKGAMTENADENALQSDAKGKLDSVATDYGAAIDGFIGDVSGLANGNGATGDFAGSNSQMAQVGDGDNSPLMNNFRQYLPSLPQSVECRPFVFSAGKPYEFSIDCDKINLFRGVFAFLLYVATFMYVFSTFANILRNKES
notes: Whole phage particle; its peptide served as the control peptide
B5: M13 phage clone 4-1-4-C12 (other)
chain: SLPDDWFRYINYGGGSAETVESCLAKPHTENSFTNVWKDDKTLDRYANYEGCLWNATGVVVCTGDETQCYGTWVPIGLAIPENEGGGSEGGGSEGGGSEGGGTKPPEYGDTPIPGYTYINPLDGTYPPGTEQNPANPNPSLEESQPLNTFMFQNNRFRNRQGALTVYTGTVTQGTDPVKTYYQYTPVSSKAMYDAYWNGKFRDCAFHSGFNEDPFVCEYQGQSSDLPQPPVNAGGGSGGGSGGGSEGGGSEGGGSEGGGSEGGGSGGGSGSGDFDYEKMANANKGAMTENADENALQSDAKGKLDSVATDYGAAIDGFIGDVSGLANGNGATGDFAGSNSQMAQVGDGDNSPLMNNFRQYLPSLPQSVECRPFVFSAGKPYEFSIDCDKINLFRGVFAFLLYVATFMYVFSTFANILRNKES
notes: as for B1
B6: synthetic peptide 4-1-3-C11 (control peptide) (peptide)
peptide: YSHSVHAIEDNWSPRGGGGS
modifications: also: biotinylated (position not given here)
notes: also called negative control
B7: NEO-101 antibody (chimeric) (antibody, V domains shown)
VH: QVQLKESGPDLVAPSQSLSITCTVSGFSLSKFGVNWVRQPPGKGLEWLGVIWGDGSTSYNSGLISRLSISKENSKSQVFLKLNSLQADDTATYYCVKPGGDYWGHGTSVTVSS
VL: QVVLTQSPVIMSASPGEKVTMTCSASSSISYMYWYQQKPGTSPKRWIYDTSKLASGVPARFSGSGSGTSYSLTISNMEAGDAATYYCHQRDSYPWTFGGGTNLEIK
notes: Chimeric, murine variable regions with human constant regions; Used unlabeled, biotinylated, FITC-labeled or coupled to Dynal beads depending on the assay; also called NPC-1C; NPC-1-C

How the values were obtained:
[1] = target: B7; test: competition: phage premixed with NEO-101-coupled beads, then rosetting of CFPAC1 cells
Experimental: The M13 clones identified by the biopanning were also immunoassayed using magnetic beads. […] CFPAC1 cells (30 μl of 10⁶cells/ml) were added and incubated at 4° C. for 30 min. Rosetted cells were counted (>8 beads/cell).

[2] = target: B7; test: ELISA, biotinylated peptide on NEO-101 coated plate
Experimental: To solve the poor binding of peptides to 96 well plate, peptides were biotinylated using EZ-link micro NHS Biotinylation kit (Pierce Cat#21955), and labeling efficiency checked by dot blot (50%). […] The solution was blocked with 200 μl of 1% milk in TBS at RT for 20 min, Aliquots of 100 μl peptide-biotin (1 μg/ml) in 0.1% milk-TBS were added, and incubated at RT of 2 hr, followed by three washes with TBST. Streptavidin-HRP (100 μl of 1:2000 diluted in 1:10 diluted blocking buffer) was added, and the wells incubated at RT for 1 hr, followed by three washed. TMB was then added, and the wells were read at 450 nm. Positive controls for NPC-1C binding used 4B6-biotin. The results are shown in FIG. 11, which indicates biotinlyated peptides bind to NPC-1C coated plate.

[3] = target: T1, MUC5AC truncation construct 1-136 (human, UniProt P98088 3212-4055); test: immunofluorescence of transfected 293T cells
T1 sequence: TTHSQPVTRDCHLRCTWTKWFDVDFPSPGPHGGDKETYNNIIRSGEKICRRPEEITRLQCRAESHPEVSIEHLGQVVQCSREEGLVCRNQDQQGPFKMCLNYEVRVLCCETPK
Experimental: (§1) Cells were transiently transfected with 2 μg of MUC5AC constructs of Table 8 with LIPOFECTAMINE®. Cells were grown for about 72 hours, fixed with about 4% PFA in PBS, washed with PBS, permeabilized with about 0.2% […] in PBS and washed with PBS. […] Cells were washed with PBS and second anti human-FITC antibody (1:500) was added to all wells and to the second antibody control wells. Cells were washed and mounted on slides with DAPI hard mount. Cover slides were allowed to sit over night at about 4° C. Slides were visualized with a Nikon Eclipse Ti microscope with an Andor camera. At least 3 random fields were counted per transfection.

[4] = target: T2, MUC5AC truncation construct 1-85 (human, UniProt P98088 1734-1794); test: immunofluorescence of transfected 293T cells
T2 chain: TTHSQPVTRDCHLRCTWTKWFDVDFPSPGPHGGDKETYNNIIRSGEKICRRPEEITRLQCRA
Experimental: as §1

Binder	Positive rosette cells (%) [1] [%]	further results
B1	0	–
B2	0	–
B3	0	–
B4	38	–
B5	0	–
B6	–	binding result [2]: no binding (tested: 1 µg/ml)
B7	–	binding result [3]: no binding (tested: about 2 µg/ml); binding result [4]: no binding (tested: about 2 µg/ml)
